The target of test [1] is KO_1st loop. Briefly: flow cytometry, CHO cells transiently transfected with the construct, 6C7 at 0.1 µg/ml, dot plot SSC-A against PE-A. (In flow cytometry, cells or beads pass a laser one at a time.)
For test [2], the target named is KO_3rd loop. The description is as above.
Test [3] concerns the target KO_N-term. Described as above.
In test [4] the target is KO_1st loop. Briefly: flow cytometry, CHO cells transiently transfected with the construct, 6C7 at 0.05 µg/ml, dot plot SSC-A against PE-A.
Test [5] deals with KO_3rd loop. Described as above.
The target in test [6] is KO_N-term. The test is described as above.

B1: 6C7 (antibody, V domains shown)
VH: QVQLVESGGGVVQPGRSLRLSCAASGFTFSNYVMHWVRQAPGKGLEWVAVIWYDGSNKYYADSVKGRFTISRDNSKNTLSLQMNSLRAEDTAVYYCERGEGYYGSGSRYRGYYYGMDVWGQGTTVTVSS
VL: DIQMTQSPSSLSASVGDRVTITCRASQGIRTDLGWYQQKPGKAPKRLIYAASSLQSGVPSRFSGSGSGTEFTLTISSLQPEDFATYYCLQHNSYPRTFGQGTKVEIK
Turning to B1, the number in the positive gate (percent of cells) in test [1] was 50.1; in test [2] it was 52.8; in test [3], 52.8; in test [4], 45.2; in test [5], 47; in test [6], 49.2.

These data come from US20140314784A1.
